Square brackets hold non-standard residues; d marks the D form. Ends that are not written are not given here. Sta = CC(C)C[C@H](N)[C@@H](O)CC(=O)O
Biological target: T1, purified BACE (Homo sapiens, UniProt P56817)
T1 construct: Pooled fractions containing full-length BACE were passed over a 5 ml HiTrap Q column; 6xHis (C); made in house; host or cells: Sf9 insect cells (recombinant baculovirus, pFASTBAC1)
Assay: Competitive radioligand binding assay (RLBA)
Conditions: binding to purified BACE as in example 6, FIG. 4
Protocol: 96 well microplates (Optiplate Packard) are coated with purified BACE protein using a concentration of 1 μg/ml in 30 mM sodium citrate buffer adjusted to pH 5.5. The coating is achieved by incubation of 100 μl/well for 1-3 days at 4° C. The plate is then washed with 2×300 μl/well of 10 mM citrate pH 4.1. To each well 100 μl binding buffer (30 mM citrate, 100 mM NaCl, 0.1% BSA, pH 4.1) is dispensed. The test compound (peptide H-4848 in FIGS. 4A and B) is added in 5 μl from a DMSO stock solution or appropriate dilutions. To this the tracer (tritiated Compound A) is added in 10 μl/well from a 10 μCi/ml stock solution in binding buffer. After incubation for 1.5-2 hours in a humid chamber at ambient temperature the plate is washed with 2×300 μl/well water and flipped on a dry towel. Following the addition of 50 μl/well MicroScint20 (Packard) the plate is sealed and vibrated for 5 seconds. The bound radioactivity is counted on a Topcount (Packard). Total binding is typically between 2000 and 10000 cpm/well depending mainly on the purity and concentration of the BACE protein. Non-specific binding as assessed by competition with >1 μM peptide H-4848 (Bachem #H-4848) is typically between 30 and 300 cpm/well. The IC-50 values are calculated by Microsoft Excel FIT.

T1 sequence (P56817 46-501): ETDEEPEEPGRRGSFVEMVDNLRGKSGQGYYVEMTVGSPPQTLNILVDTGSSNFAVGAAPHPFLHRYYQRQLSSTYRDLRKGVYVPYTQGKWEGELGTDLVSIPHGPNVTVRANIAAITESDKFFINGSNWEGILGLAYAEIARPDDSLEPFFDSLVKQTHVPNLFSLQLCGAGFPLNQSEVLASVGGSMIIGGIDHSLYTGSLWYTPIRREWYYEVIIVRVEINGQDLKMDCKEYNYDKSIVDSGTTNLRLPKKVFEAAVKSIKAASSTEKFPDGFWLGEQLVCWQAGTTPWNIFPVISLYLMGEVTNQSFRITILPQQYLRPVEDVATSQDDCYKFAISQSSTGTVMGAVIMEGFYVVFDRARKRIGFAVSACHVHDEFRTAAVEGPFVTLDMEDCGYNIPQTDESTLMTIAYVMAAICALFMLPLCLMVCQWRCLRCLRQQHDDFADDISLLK

## tritiated compound A: Compound A with iodine exchanged for 3H by reduction on palladium; tracer of the binding assay (EVN[Sta]VAE[Tyr(3H2)]-NH2)
  equilibrium binding isotherm (Scatchart analysis): single binding site isotherm

From patent US20030125257A1, “Assay for identifying beta secretase inhibitors” (priority 2001, published 2003)
